Reference: patent US20170212130A1 (ROCKEFELLER UNIVERSITY, published 2017)

Tests used:
GFP-His6 (eGFP) [1] = biological target: T1, GFP-His6 (eGFP) (Aequorea victoria, UniProt P42212 2-238 = GFP); assay: SPR, GFP immobilized
T1 construct: SPR and bead assays speak only of recombinant GFP or eGFP; also called recombinant GFP; A. victoria (Av) GFP

GFP-His6 (eGFP) [2] = biological target: T1, GFP-His6 (eGFP); assay: SPR, GFP immobilized, Langmuir fit; no unit printed [continued]
GFP-His6 (eGFP) [3] = biological target: T1, GFP-His6 (eGFP); assay: label under gel lane; legend: in vitro Kd for GFP by SPR
GFP-His6 (eGFP) [4] = biological target: T1, GFP-His6 (eGFP); assay: SPR, GFP immobilized, Langmuir fit; no unit printed [continued]; remark: listed apart in the source
GFP-His6 (eGFP) [5] = biological target: T1, GFP-His6 (eGFP); assay: SPR, GFP immobilized, Langmuir fit; unit inferred
DsRed = biological target: T2, DsRed (Discosoma sp., UniProt Q9U6Y8 1-225); assay: bead binding: nanobody-Dynabeads + fluorescent protein, eluate on SDS-PAGE
T2 construct: Recombinant fluorescent protein; construct not described; also called standard DsRed; DsRed from Discosoma (Ds)

mCherry [6] = biological target: T3, mCherry (Discosoma); assay: SPR, mCherry immobilized
T3 construct: Immunogen is mCherry-His6; SPR says recombinant mCherry; also called recombinant mCherry-His6; Discosoma mCherry

mCherry [7] = biological target: T3, mCherry; assay: SPR, mCherry immobilized, Langmuir fit; unit inferred
mCherry [8] = biological target: T3, mCherry; assay: label under gel lane; legend: in vitro Kd for mCherry by SPR
GFP-His6 (eGFP) [9] = biological target: T1, GFP-His6 (eGFP); assay: bead binding: nanobody-Dynabeads + fluorescent protein, eluate on SDS-PAGE
GFP-His6 (eGFP) [10] = biological target: T1, GFP-His6 (eGFP); assay: bead binding assay (footnote 1)

T2 sequence (Q9U6Y8 whole entry): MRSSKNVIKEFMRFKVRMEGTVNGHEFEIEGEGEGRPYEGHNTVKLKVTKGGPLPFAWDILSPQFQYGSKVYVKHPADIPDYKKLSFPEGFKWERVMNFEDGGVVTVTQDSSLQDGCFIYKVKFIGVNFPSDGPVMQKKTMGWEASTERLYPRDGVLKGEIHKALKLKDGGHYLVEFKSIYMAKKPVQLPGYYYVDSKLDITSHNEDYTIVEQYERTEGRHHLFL

Binder	Kd (GFP-His6 (eGFP) [1]) [nM]	Kd (GFP-His6 (eGFP) [5]) [nM]	binding result (DsRed)	also measured
LaG-29 (VHH) VHH: QVQLVESGGGLVQAGAALRLSCAASGGTFSFYNMGWFRQAPGKEREFVVSISRSGGGTAYADSVKGRFTISRDNAKNTAYLQMNSLKPEDTAVYYCAAGLRDWGREGEPHYWGQGTQVTVS	110			Kd (GFP-His6 (eGFP) [2]): 110 nM
LaG-43 (VHH) VHH: DVQLVESGGGLVQPGGSLRLSCEASGGAFSTVAMGWFRQAPGKEREFVGAITWTAGSTYYADSAKGRFTISRDNAKNTVHLQMNSLKPEDTAVYYCAQRVRGFFGPLRTTPSWYEYWGQGTQVTVS	11			Kd (GFP-His6 (eGFP) [3]): 13 nM; Kd (GFP-His6 (eGFP) [4]): 11 nM
LaG-14 (VHH) VHH: QVQLVESGGGLVQAGGSLRLSCAASGRTYSISAMGWFRQAPGKEREFVAGISRSGGTTYYADPVKGRFTISRDNAKNTVYLQMNSLKPEDTAVYYCAARARGWTTFPAREIEYDYWGQGTQVTV	1.9	1.9	no binding	
LaM-3 (VHH) VHH: QVQLVQSGGGLVQAGGSLRLSCAASGRTFSDIAVGWFRQTPGKEREFVAAISWSGLIINYGDSVEDRFTISRDNAKSAVYLQMNSLKPEDTAVYYCAARIGMNYYYAREIEYPYWGQGTQVTVS				Kd (mCherry [6]): 1.9 nM; Kd (mCherry [7]): 1.9 nM; Kd (mCherry [8]): 1.9 nM; binding result (GFP-His6 (eGFP) [9]): no binding
LaG-27 (VHH) VHH: DVQLVESGGGLVQAGGSLRLSCTASGLTISTYNIGWFRQAPGKEREFVGIIIRNGDTTYYADSVKGRFTISRDNAKNTVYLQMNSVKPADAAVYSCGATVRAGAAAEQYNSYIFRGQGTQVTV	9.5		no binding	Kd (GFP-His6 (eGFP) [2]): 9.5 nM
LaG-26 (VHH) VHH: QVQLVESGGGLVQAGASMRLSCAASGITFSLYHWVWFRQAAGREHEFVAGIIRSGGETLSADSVKDRFIISRDDAKNTLYLQMNMLQPEDTATYYCAATHRADWYSSAFREYIFRGQGTQVTVS	2.6		no binding	Kd (GFP-His6 (eGFP) [2]): 2.6 nM
LaG16-LaG2 (3xFLAG) (other, Member of the group m24; also called LaG16-LaG2 3xFLAG Dimer) single-chain fusion of two VHH (part 1 of 2): MAQVQLVESGGRLVQAGDSLRLSCAASGRTFSTSAMAWFRQAPGREREFVAAITWTVGNTILGDSVKGRFTISRDRAKNTVDLQMDNLEPEDTAVYYCSARSRGYVLSVLRSVDSYDYWGQGTQVTVS single-chain fusion of two VHH (part 2 of 2): MAQVQLVESGGGLVQAGGSLRLSCAASGRTFSNYAMGWFRQAPGKEREFVAAISWTGVSTYYADSVKGRFTISRDNDKNTVYVQMNSLIPEDTAIYYCAAVRARSFSDTYSRVNEYDYWGQGTQVTV	0.268			Kd (GFP-His6 (eGFP) [4]): 0.27 nM
LaG-10 (VHH) VHH: QVQLVESGGGLVQAGDSLQLSCAFSGGTFSTYAMGWFRQAPGKEREFVGGISRSGATTNYEDSVKGRFTISKDNTKNTVYLQLNSLKPEDTAVYYCAARNNILPVTTIDKYEYWGQGTQVTV	97	97		
LaG-11 (VHH) VHH: DVQLVESGGRSVRAGDSLRLSCLASGGTFSLYAMGWFRQAPGKEREFVAAVTWSGGSTYYTDSVKGRFSISRDNAKNTVYLQMNSLKPEDTAVYYCAVRTSGFFGSIPVTERAFDYWGQGTQVTVS				Kd (GFP-His6 (eGFP) [10]): 22900 nM; Kd (GFP-His6 (eGFP) [3]): 22900 nM
LaG-37 (VHH) VHH: QVQFVESGGGTVQDGDFLRLSCTASGDTFSNYHAGWFRQPPGREREFVAAISWTGEGTLYADSVKGQFTISRDNAKNAMYLQMNRLKPEDTAVYYCAAARSVGFTWRSSKSNDYAYWGQGTQVTV	24			Kd (GFP-His6 (eGFP) [3]): 25 nM; Kd (GFP-His6 (eGFP) [2]): 24 nM
LaG41-LaG2 (G4S) (bispecific antibody, Member of the group m24; also called LaG41-LaG2 G4S Dimer) single-chain fusion of two VHH: MADVQLVESGGGLVQAGGSLRLSCAASGPTGAMAWFRQAPGKEREFVGGISGSETDTYYVDSVKGRFTVDRDNVKNTVYLQMNSLKPEDTAVYYCAARRRITLFTSRTDYDFWGRGTQVTVGGGGSGGGGSGGGGSMAQVQLVESGGGLVQAGGSLRLSCAASGRTFSNYAMGWFRQAPGKEREFVAAISWTGVSTYYADSVKGRFTISRDNDKNTVYVQMNSLIPEDTAIYYCAAVRARSFSDTYSRVNEYDYWGQGTQVTV	0.15			Kd (GFP-His6 (eGFP) [4]): 0.15 nM
LaG-19 (VHH) VHH: QVQLVESGGGLVQAGGSLRLSCAASGPTGAMAWFRQAPGKEREFVGGISRSGTDTYYVDSVKGRFTIDRDNAKNTVYLQMNSLKPEDTAVYYCAARRSQILFTSRTDYEFWGQGTQVTVS			no binding	Kd (GFP-His6 (eGFP) [10]): 24.6 nM
LaG-35 (VHH) VHH: DVQLVESGGGLVQAGGSLRLSCTVSGRTFSNYAMGWFRQAPGKEREFVAGISWTGGHTLYTDSVKGRFTISRDNAKNTVYLQMNSLKPEDTALYYCAADRAADFFAQRDEYDYWGQGTQVTVS				Kd (GFP-His6 (eGFP) [10]): 23.5 nM; Kd (GFP-His6 (eGFP) [3]): 24 nM
LaG-17 (VHH) VHH: DVQLVESGGGLVQAGGSLRLSCAASGRTISMAAMSWFRQAPGKEREFVAGISRSAGSAVHADSVKGRFTISRDNTKNTLYLQMNSLKAEDTAVYYCAVRTSGFFGSIPRTGTAFDYWGQGTQVTVS		48	no binding	
LaG-30 (VHH) VHH: QVQLVESGGGLVQAGGSLRLSCAASGRTFSTSAMGWFRQAPGREREFVAAITWTVGNTIYGDSMKGRFTISRDRTKNTVDLQMDSLKPEDTAVYYCTARSRGFVLSDLRSVDSFDYKGQGTQVTVS	0.5		no binding	Kd (GFP-His6 (eGFP) [2]): 0.5 nM
LaG-42 (VHH) VHH: DVQLVESGGGLVQAGDSLRLSCAASGPTGAMAWFHQGLGKEREFVGGISPSGDNIYYADSVKGRFTIDRDNAKNTVSLQMNSLKPEDMGVYYCAARRRVTLFTSRTDYEFWGRGTQVTVS	600			
LaG-3 (VHH) VHH: QVQLVESGGGLVQAGGSLRVSCAASGRTYSDYAMGWFRQAPGKERDFVAGISGSGGDTYYADSVKGRFTISRDNAKNTMYLQMNSLKPEDTAVYFCAARTGTVLFTSRVDYRYWGQGTQVTV	25	25	no binding	
LaG-16 (VHH, Conjugated to Alexa Fluor 568 (succinimidyl ester, on amines) in the microscopy result. The letters are unchanged., Conjugated to Alexa Fluor 568 for microscopy) VHH: QVQLVESGGRLVQAGDSLRLSCAASGRTFSTSAMAWFRQAPGREREFVAAITWTVGNTILGDSVKGRFTISRDRAKNTVDLQMDNLEPEDTAVYYCSARSRGYVLSVLRSVDSYDYWGQGTQVTVS	0.7	0.69	no binding	
LaG-6 (VHH) VHH: QVQLVESGGGLVQAGGSLRLSCAASGRTFSTSAMAWFRQAPGKEREFAAGITWISSSTYYTDSVKGRFTISRDNAKNTVYLQMNSLKPEDTAVYYCAAKSEGYFGFPRVENEYPYWGQGTQVTV	310	310		
LaG-21 (VHH) VHH: QVQLVESGGGLVQAGGSLRLSCAASGPTGAMAWFRQAPGMEREFVGGISGSETDTYYADFVKGRLTVDRDNVKNTVDLQMNSLKPEDTAVYYCAARRRVTLFTSRADYDFWGQGTQVTVS	7		no binding	
